test system: Escherichia coli TOP10; experiment: shrunken log2 fold change of peptide-encoding DNA abundance (4.5 h post-induction vs induction); higher = less antimicrobial activity (less host growth inhibition); conditions: time post-induction: 4.5 h; library: site-saturation at positions 5, 18, 19, 20
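Further: peptides expressed intracellularly from a pBAD plasmid library in pooled LB shake-flask culture, induced with 0.3% L-arabinose, DNA abundance read by NGS, three biological replicates, DESeq2 with apeglm shrinkage.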

| Sequence | shrunken log2 fold change |
| --- | --- |
| RRIRYRPPRLPRPRPRPHWTPRP | -0.0421 |
| RRIRIRPPRLPRPRPRPFYPPRP | -0.776 |
| RRIRTRPPRLPRPRPRPSPEPRP | 0.0171 |
| RRIRSRPPRLPRPRPRPRNPPRP | 0.103 |
| RRIRTRPPRLPRPRPRPKMGPRP | -0.0141 |
| RRIRFRPPRLPRPRPRPKTDPRP | -0.0282 |
| RRIRMRPPRLPRPRPRPTPVPRP | 1.14 |
| RRIRKRPPRLPRPRPRPHLHPRP | 0.265 |
| RRIRNRPPRLPRPRPRPSIIPRP | -0.856 |
| RRIRPRPPRLPRPRPRPFWCPRP | -0.0114 |
| RRIRFRPPRLPRPRPRPHIPPRP | -0.289 |
| RRIRWRPPRLPRPRPRPHYYPRP | -0.581 |
| RRIRGRPPRLPRPRPRPPCSPRP | 0.238 |
| RRIRHRPPRLPRPRPRPVDLPRP | -0.314 |
| RRIRIRPPRLPRPRPRPNWLPRP | -0.0339 |
| RRIRSRPPRLPRPRPRPCQSPRP | -0.01 |
| RRIRLRPPRLPRPRPRPFIVPRP | -0.238 |
| RRIRVRPPRLPRPRPRPHECPRP | -0.0944 |
| RRIRMRPPRLPRPRPRPFFVPRP | -0.0457 |
| RRIRLRPPRLPRPRPRPWVTPRP | -0.145 |
| RRIRIRPPRLPRPRPRPPSRPRP | 0.231 |
| RRIRLRPPRLPRPRPRPISNPRP | -0.17 |

| Sequence | shrunken log2 fold change |
| --- | --- |
| RRIRNRPPRLPRPRPRPAQKPRP | 0.918 |
| RRIRYRPPRLPRPRPRPNNGPRP | -0.156 |
| RRIRNRPPRLPRPRPRPIASPRP | 0.0215 |
| RRIRWRPPRLPRPRPRPMPSPRP | -0.116 |
| RRIRARPPRLPRPRPRPILAPRP | 0.147 |
| RRIRPRPPRLPRPRPRPAQAPRP | 0.329 |
| RRIRVRPPRLPRPRPRPLEIPRP | -0.073 |
| RRIRYRPPRLPRPRPRPTSHPRP | -0.611 |
| RRIRPRPPRLPRPRPRPHKKPRP | 0.165 |
| RRIRFRPPRLPRPRPRPVPTPRP | 0.113 |
| RRIRERPPRLPRPRPRPTEGPRP | 0.0858 |
| RRIRNRPPRLPRPRPRPCTTPRP | -0.213 |
| RRIRWRPPRLPRPRPRPWYPPRP | 0.0299 |
| RRIRARPPRLPRPRPRPQQMPRP | 0.12 |
| RRIRLRPPRLPRPRPRPVEVPRP | -0.0272 |
| RRIRYRPPRLPRPRPRPNGEPRP | -0.0103 |
| RRIRQRPPRLPRPRPRPNYTPRP | -0.207 |
| RRIRDRPPRLPRPRPRPRTNPRP | -0.179 |
| RRIRMRPPRLPRPRPRPKNFPRP | -0.15 |
| RRIRARPPRLPRPRPRPRSDPRP | 0.257 |
| RRIRARPPRLPRPRPRPIKPPRP | 0.0335 |
| RRIRERPPRLPRPRPRPENNPRP | -0.27 |

| Sequence | shrunken log2 fold change |
| --- | --- |
| RRIRLRPPRLPRPRPRPVWIPRP | 0.0148 |
| RRIRFRPPRLPRPRPRPQRYPRP | -0.139 |
| RRIRPRPPRLPRPRPRPIHMPRP | -0.23 |
| RRIRFRPPRLPRPRPRPGPRPRP | 0.618 |
| RRIRDRPPRLPRPRPRPEGSPRP | 1.06 |
| RRIRARPPRLPRPRPRPLCHPRP | 0.173 |
| RRIRIRPPRLPRPRPRPFGYPRP | -0.478 |
| RRIRTRPPRLPRPRPRPCVAPRP | 0.192 |
| RRIRNRPPRLPRPRPRPEKRPRP | -0.0252 |
| RRIRKRPPRLPRPRPRPWKFPRP | 0.0297 |
| RRIRYRPPRLPRPRPRPEKDPRP | 0.0236 |
| RRIRVRPPRLPRPRPRPNKEPRP | 0.0955 |
| RRIRGRPPRLPRPRPRPAIHPRP | 0.164 |
| RRIRNRPPRLPRPRPRPLAPPRP | 0.262 |
| RRIRIRPPRLPRPRPRPDATPRP | 0.0122 |
| RRIRARPPRLPRPRPRPYFNPRP | -0.71 |
| RRIRLRPPRLPRPRPRPWHGPRP | -0.109 |
| RRIRHRPPRLPRPRPRPNIPPRP | -0.234 |
| RRIRTRPPRLPRPRPRPPHHPRP | -0.149 |
| RRIRMRPPRLPRPRPRPPDNPRP | 1.55 |
| RRIRKRPPRLPRPRPRPMFRPRP | 0.0113 |
| RRIRARPPRLPRPRPRPQKTPRP | 0.0194 |

| Sequence | shrunken log2 fold change |
| --- | --- |
| RRIRCRPPRLPRPRPRPGWHPRP | 0.269 |
| RRIRHRPPRLPRPRPRPATCPRP | -0.196 |
| RRIRIRPPRLPRPRPRPMHGPRP | -0.216 |
| RRIRIRPPRLPRPRPRPHKRPRP | -0.169 |
| RRIRCRPPRLPRPRPRPAEEPRP | -0.314 |
| RRIRHRPPRLPRPRPRPACPPRP | -0.0965 |
| RRIRMRPPRLPRPRPRPRFMPRP | 0.385 |
| RRIRMRPPRLPRPRPRPLHQPRP | 0.0887 |
| RRIRQRPPRLPRPRPRPATNPRP | -0.0811 |
| RRIRWRPPRLPRPRPRPESGPRP | 0.347 |
| RRIRRRPPRLPRPRPRPTDHPRP | -0.235 |
| RRIRSRPPRLPRPRPRPATRPRP | 0.415 |
| RRIRDRPPRLPRPRPRPLNFPRP | -0.139 |
| RRIRQRPPRLPRPRPRPSPYPRP | -0.187 |
| RRIRRRPPRLPRPRPRPLSEPRP | 0.382 |
| RRIRHRPPRLPRPRPRPQESPRP | 0.00355 |
| RRIRQRPPRLPRPRPRPCVKPRP | -0.0496 |
| RRIRERPPRLPRPRPRPKAYPRP | -0.00666 |
| RRIRSRPPRLPRPRPRPRELPRP | 0.0421 |
| RRIRMRPPRLPRPRPRPGVWPRP | 0.723 |
| RRIRARPPRLPRPRPRPCEDPRP | 0.693 |
| RRIRCRPPRLPRPRPRPNGVPRP | -0.216 |

| Sequence | shrunken log2 fold change |
| --- | --- |
| RRIRVRPPRLPRPRPRPIGIPRP | -0.415 |
| RRIRVRPPRLPRPRPRPMPNPRP | -0.116 |
| RRIRDRPPRLPRPRPRPGKHPRP | -0.0728 |
| RRIRQRPPRLPRPRPRPPIHPRP | -0.0767 |
| RRIRTRPPRLPRPRPRPFAQPRP | -0.178 |
| RRIRPRPPRLPRPRPRPSRKPRP | 0.0349 |
| RRIRERPPRLPRPRPRPMVCPRP | -0.0478 |
| RRIRQRPPRLPRPRPRPFQLPRP | -0.00805 |
| RRIRLRPPRLPRPRPRPFETPRP | -0.241 |
| RRIRMRPPRLPRPRPRPHKAPRP | 0.000331 |
| RRIRTRPPRLPRPRPRPMVLPRP | -0.0596 |
| RRIRMRPPRLPRPRPRPRCAPRP | 1.12 |
| RRIRKRPPRLPRPRPRPGPEPRP | 1.1 |
| RRIRLRPPRLPRPRPRPWVRPRP | -0.00819 |
| RRIRGRPPRLPRPRPRPCPCPRP | -0.0469 |
| RRIRVRPPRLPRPRPRPKQNPRP | 0.385 |
| RRIRSRPPRLPRPRPRPVMKPRP | -0.45 |
| RRIRRRPPRLPRPRPRPGSVPRP | 0.299 |
| RRIRHRPPRLPRPRPRPNRTPRP | 0.031 |
| RRIRMRPPRLPRPRPRPCVHPRP | 0.0648 |
| RRIRKRPPRLPRPRPRPKTCPRP | 0.209 |

Reference: the supplement of paper PMC9112550, “Optimization of the antimicrobial peptide Bac7 by deep mutational scanning” (BMC Biology, 2022)
